# Measured values published in US20150065381A1.
# Values joined by “and” are separate entries in the source; they are usually repeats but may differ in a detail not shown here. Identical values can stand only once.
# Columns and labels:
# [1] = biological target: HIV-1 envelope of gp160 clone B-Acute-008.c11 (HIV-1); assay: capture ELISA, plate 2, mAb 2.5 ug/ml
# [2] = biological target: HIV-1 envelope clone BF-002.c05 (multiclade gp160 clone panel) (HIV-1); assay: capture ELISA, plate 2, mAb 2.5 ug/ml
# [3] = biological target: HIV-1 16055 envelope (HIV-1); assay: capture ELISA, plate 2, mAb 2.5 ug/ml
# [4] = biological target: HIV-1 envelope of gp160 clone AG-010.c11 (HIV-1); assay: capture ELISA, plate 2, mAb 2.5 ug/ml
# [5] = biological target: BG505 envelope (gp120 monomer released from lysed pseudovirus) (HIV-1); assay: antigen capture ELISA, mAb 0.8 ug/ml, plate 2
# [6] = biological target: aMLV envelope (from lysed pseudovirus); assay: antigen capture ELISA, mAb 0.8 ug/ml, plate 2
# [7] = biological target: BG505 envelope (gp120 monomer released from lysed pseudovirus) (HIV-1); assay: antigen capture ELISA, mAb 0.3 ug/ml, plate 2
# [8] = biological target: aMLV envelope (from lysed pseudovirus); assay: antigen capture ELISA, mAb 0.3 ug/ml, plate 2
# [9] = biological target: HIV-1 envelope of gp160 clone B-Acute-008.c11 (HIV-1); assay: capture ELISA, plate 2, mAb 0.8 ug/ml
# [10] = biological target: HIV-1 envelope clone G-011.c02 (multiclade gp160 clone panel) (HIV-1); assay: capture ELISA, plate 2, mAb 0.8 ug/ml
# [11] = biological target: HIV-1 envelope of gp160 clone B-Chronic-014.c02 (HIV-1); assay: capture ELISA, plate 2, mAb 0.8 ug/ml
# [12] = biological target: HIV-1 envelope clone G-011.c05 (multiclade gp160 clone panel) (HIV-1); assay: capture ELISA, plate 2, mAb 0.8 ug/ml
# [13] = biological target: HIV-1 envelope clone F1-002.c16 (multiclade gp160 clone panel) (HIV-1); assay: capture ELISA, plate 2, mAb 0.8 ug/ml
# [14] = biological target: HIV-1 envelope clone BF-002.c05 (multiclade gp160 clone panel) (HIV-1); assay: capture ELISA, plate 2, mAb 0.8 ug/ml
# [15] = biological target: HIV-1 envelope of gp160 clone B-Acute-009-c08 (HIV-1); assay: capture ELISA, plate 2, mAb 0.8 ug/ml
# [16] = biological target: HIV-1 envelope of gp160 clone B-Acute-010.c09 (HIV-1); assay: capture ELISA, plate 2, mAb 0.8 ug/ml
# [17] = biological target: HIV-1 envelope of gp160 clone B-Acute-010.c08 (HIV-1); assay: capture ELISA, plate 2, mAb 0.8 ug/ml
# [18] = biological target: HIV-1 JRCSF envelope (HIV-1) (UniProt P20871); assay: capture ELISA, plate 2, mAb 0.8 ug/ml
# [19] = biological target: HIV-1 16055 envelope (HIV-1); assay: capture ELISA, plate 2, mAb 0.8 ug/ml
# [20] = biological target: HIV-1 JRFL envelope (HIV-1); assay: capture ELISA, plate 2, mAb 0.8 ug/ml
# [21] = biological target: HIV-1 envelope of gp160 clone AG-010.c11 (HIV-1); assay: capture ELISA, plate 2, mAb 0.8 ug/ml
# [22] = biological target: HIV-1 envelope of gp160 clone AG-010.c14 (HIV-1); assay: capture ELISA, plate 2, mAb 0.8 ug/ml
# [23] = biological target: HIV-1 envelope clone F1-002.c11 (multiclade gp160 clone panel) (HIV-1); assay: capture ELISA, plate 2, mAb 7.5 ug/ml
# [24] = biological target: HIV-1 envelope of gp160 clone B-Acute-008.c11 (HIV-1); assay: capture ELISA, plate 2, mAb 7.5 ug/ml
# [25] = biological target: HIV-1 envelope clone G-011.c02 (multiclade gp160 clone panel) (HIV-1); assay: capture ELISA, plate 2, mAb 7.5 ug/ml
# [26] = biological target: HIV-1 envelope of gp160 clone B-Chronic-014.c02 (HIV-1); assay: capture ELISA, plate 2, mAb 7.5 ug/ml
# [27] = biological target: HIV-1 envelope clone G-011.c05 (multiclade gp160 clone panel) (HIV-1); assay: capture ELISA, plate 2, mAb 7.5 ug/ml
# [28] = biological target: HIV-1 envelope clone F1-002.c16 (multiclade gp160 clone panel) (HIV-1); assay: capture ELISA, plate 2, mAb 7.5 ug/ml
# [29] = biological target: HIV-1 envelope clone BF-002.c08 (multiclade gp160 clone panel) (HIV-1); assay: capture ELISA, plate 2, mAb 7.5 ug/ml
# [30] = biological target: HIV-1 envelope clone BF-002.c05 (multiclade gp160 clone panel) (HIV-1); assay: capture ELISA, plate 2, mAb 7.5 ug/ml
# [31] = biological target: HIV-1 envelope of gp160 clone B-Acute-009-c08 (HIV-1); assay: capture ELISA, plate 2, mAb 7.5 ug/ml
# [32] = biological target: HIV-1 envelope of gp160 clone B-Acute-010.c09 (HIV-1); assay: capture ELISA, plate 2, mAb 7.5 ug/ml
# [33] = biological target: HIV-1 envelope of gp160 clone B-Acute-010.c08 (HIV-1); assay: capture ELISA, plate 2, mAb 7.5 ug/ml
# [34] = biological target: HIV-1 JRCSF envelope (HIV-1) (UniProt P20871); assay: capture ELISA, plate 2, mAb 7.5 ug/ml
# [35] = biological target: HIV-1 16055 envelope (HIV-1); assay: capture ELISA, plate 2, mAb 7.5 ug/ml
# [36] = biological target: HIV-1 JRFL envelope (HIV-1); assay: capture ELISA, plate 2, mAb 7.5 ug/ml
# [37] = biological target: HIV-1 envelope of gp160 clone AG-010.c11 (HIV-1); assay: capture ELISA, plate 2, mAb 7.5 ug/ml
# [38] = biological target: HIV-1 envelope of gp160 clone AG-010.c14 (HIV-1); assay: capture ELISA, plate 2, mAb 7.5 ug/ml
substance,measurement,setting,value
PGT151 (antibody),ELISA OD,[1],0.266 OD
same,ELISA OD,[2],0.174 OD
same,ELISA OD,[3],0.082 OD and 0.076 OD
same,ELISA OD,[4],0.08 OD
same,ELISA OD,[5],0.054 OD
same,ELISA OD,[6],0.054 OD and 0.078 OD
same,ELISA OD,[7],0.057 OD
same,ELISA OD,[8],0.053 OD and 0.128 OD
same,ELISA OD,[9],0.203 OD
same,ELISA OD,[10],0.081 OD
same,ELISA OD,[11],0.2 OD
same,ELISA OD,[12],0.079 OD
same,ELISA OD,[13],0.082 OD
same,ELISA OD,[14],0.133 OD
same,ELISA OD,[15],0.082 OD
same,ELISA OD,[16],0.087 OD
same,ELISA OD,[17],0.135 OD
same,ELISA OD,[18],0.064 OD and 0.055 OD
same,ELISA OD,[19],0.06 OD
same,ELISA OD,[20],0.077 OD and 0.054 OD
same,ELISA OD,[21],0.061 OD
same,ELISA OD,[22],0.131 OD
same,ELISA OD,[23],0.135 OD
same,ELISA OD,[24],0.209 OD
same,ELISA OD,[25],0.197 OD
same,ELISA OD,[26],0.462 OD
same,ELISA OD,[27],0.125 OD
same,ELISA OD,[28],0.138 OD
same,ELISA OD,[29],0.102 OD
same,ELISA OD,[30],0.253 OD
same,ELISA OD,[31],0.191 OD
same,ELISA OD,[32],0.121 OD
same,ELISA OD,[33],0.21 OD
same,ELISA OD,[34],0.098 OD and 0.121 OD
same,ELISA OD,[35],0.119 OD and 0.118 OD
same,ELISA OD,[36],0.138 OD and 0.149 OD
same,ELISA OD,[37],0.116 OD
same,ELISA OD,[38],0.191 OD
